The text below walks through data of US20030198598A1, “Polypeptide derivatives” (priority 1989, published 2003).

Where a SMILES comes first, the peptide text is derived from it. [ ]: non-standard residue; d: D form. The star is where a group is joined. DTPA = O=C(O)CN(CCN(CC(=O)O)CC(=O)O)CCN(CC(=O)O)CC(=O)*; dPhe(4-Cl) = N[C@H](Cc1ccc(Cl)cc1)C(=O)O

One data set concerns the target T1, LHRH-receptors (Rattus norvegicus, UniProt P30969).
T1 construct: LHRH receptor positive anterior pituitary membranes from male Sprague-Dawley rats; from tissue; host or cells: anterior pituitary membranes of male Sprague-Dawley rats
T1 sequence (P30969 1-327): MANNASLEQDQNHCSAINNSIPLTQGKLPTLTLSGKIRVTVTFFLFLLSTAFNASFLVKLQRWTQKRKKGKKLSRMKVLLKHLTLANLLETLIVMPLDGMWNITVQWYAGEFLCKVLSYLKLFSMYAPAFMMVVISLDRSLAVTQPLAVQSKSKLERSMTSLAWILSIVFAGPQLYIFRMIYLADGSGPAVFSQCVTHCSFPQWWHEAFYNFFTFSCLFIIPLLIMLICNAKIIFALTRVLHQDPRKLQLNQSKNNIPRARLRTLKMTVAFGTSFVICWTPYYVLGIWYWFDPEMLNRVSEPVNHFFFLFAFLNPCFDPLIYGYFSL
As to the kind of experiment: Binding assay on LHRH receptor positive anterior pituitary membranes. On the set-up: species or system male Sprague-Dawley rats. The conditions noted are these: labelled with 0.4 mCi 111InCl3, 10^-6 M (DAla6)LHRH for non-specific binding.

Data set [1] addresses T2, EGF receptor (Homo sapiens, UniProt P00533).
T2 construct: Membranes are isolated by differential centrifugation; from tissue; host or cells: EGF receptor positive human tumor (membranes)
As to the kind of experiment: Inhibition of specifically bound [125I]-EGF on membranes of an EGF receptor positive human tumor. It is filed as binding. The conditions noted are these: 30 min at 37° C. The procedure: (§1) An EGF receptor positive human tumor is removed and immediately stored at −70° C. During the subsequent isolation procedure this material is kept at 0 to 4° C. The tumor tissue is dissected into small cubes prior to homogenisation in 5 parts of Buffer A (20 mM HEPES, 0.1 mM EDTA and 250 mM sucrose, pH 7.4). Membranes are isolated by differential centrifugation. The material is then diluted in the incubation buffer containing 30 mM HEPES, pH 7.4, 1 mg/ml BSA and 1 mM benzamidine. The test mixture (200 μl final volume) contains 100 000 cpm [^125I]-EGF, the tissue (5 to 25 μg protein/assay) and compound of Example 3 at a concentration of 10^−9 M. After mixing the icecold test solution on a vortex the tubes (polypropylene) are transfered to a waterbath and incubated for 30 min at 37° C. The reaction is stopped by addition of icecold Hank's or Tris buffer (4 ml). The Tris buffer contains 10 mM Tris in 0.9% sodium chloride solution and is adjusted to pH 7.4. Routinely, filtration buffers contain 1% BSA (Fraction V) to suppress non-specific binding to the glass fiber filters (type A/E) that have been soaked in the filtration buffer a few minutes prior to use. The tubes are rinsed with 4 ml of the filtration buffer and the rinsing fluid is put over the respective filters. A third wash of the filters is followed by drying and the measurement of the filter-bound radioactivity in a γ-counter. […]

Data set [2] concerns the target T2, EGF receptor. As to the kind of experiment: Similar binding assay with the 111In labelled compound as test substance, non-specific binding with 10^-7 M EGF. The conditions noted are these: compound of Example 3 labelled with 0.2 mCi 111InCl3; controls with 10^-7 M EGF. The procedure: as §1, with “The test mixture (200 μl final volume) contains 100 000 cpm [^125I]-EGF, the tissue (5 to 25 μg protein/assay) and compound of Example 3 at a concentration of 10^−9 M.” left out, “γ-counter. The washing of the filters takes approximately 10 sec.” for “γ-counter.”

Data set [3] has as its system EGF receptor positive tumour (MDA 231, MDA 468 or A 431 tumors). On the set-up: species or system nude mice. The conditions noted are these: mouse, in vivo, iv. The method, then: Biodistribution of radioactivity may be determined either with standard imaging techniques in nude mice weighing 20+5 g and bearing an EGF receptor positive tumour (MDA 231, MDA 468 or A 431 tumors) or through serial sacrifice of a number of such animals and determination of the organ radioactivity. Compound of Example 4 is administered i.v. to the animals at a dosage corresponding to 90-10 μCi and the radioactivity is assessed 5 min, 10 min, 15 min, 30 min, 60 min, 20 hrs and 48 hrs.

With `CC(=O)N[C@H](Cc1ccc(Cl)cc1)C(=O)N[C@H](Cc1ccc(Cl)cc1)C(=O)N[C@H](Cc1c[nH]c2ccccc12)C(=O)N[C@@H](CO)C(=O)N[C@@H](Cc1ccc(O)cc1)C(=O)N[C@H](CCCCNC(=O)CN(CCN(CCN(CC(=O)O)CC(=O)O)CC(=O)O)CC(=O)O)C(=O)N[C@@H](CC(C)C)C(=O)N[C@@H](CCCNC(=N)N)C(=O)N1CCC[C@H]1C(=O)N[C@H](C)C(N)=O` [^111In labelled compound of Example 8, metal not drawn] (Ac-[dPhe(4-Cl)][dPhe(4-Cl)][dW]SY[dK](DTPA)LRP[dA]-NH2), the IC50 (as a rule, the concentration needed to halve the response being measured) at LHRH-receptors was 1.1 nM.
In turn, DTPA-β-Ala-mEGF [Example 3] displayed an IC50 with EGF receptor [1] of 1.3 nM. In other words, the single-digit nanomolar range.
In the data set with EGF receptor [2], “^111In Labeled DTPA-β-Ala-mEGF [Example 4]” showed an IC50 of 3 nM. For the same molecule, in data set [3], the “Localisation of radioactivity 5 minutes after injection” value was “radioactivity is detected in the liver, kidneys, urinary bladder and in the tumor site”; the “Localisation of radioactivity 60 min after injection” value was “Radioactivity is increasing and is localized on the tumor site”.
